These results are taken from paper PMC314469, “Protein Interaction Networks by Proteome Peptide Scanning” (PLoS Biology, 2004).

The labels stand for the following.
T1: Rvs167 SH3 (RV167_YEAST), P39743
T1 chain: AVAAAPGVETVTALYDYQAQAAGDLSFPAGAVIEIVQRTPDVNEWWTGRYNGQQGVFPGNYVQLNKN

T2: Yhr016c SH3 (YSC84_YEAST), P32793
T2 chain: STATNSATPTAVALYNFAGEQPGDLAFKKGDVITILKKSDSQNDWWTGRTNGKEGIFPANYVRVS

T3: Boi2 SH3 (BOI2_YEAST), P39969
T3 chain: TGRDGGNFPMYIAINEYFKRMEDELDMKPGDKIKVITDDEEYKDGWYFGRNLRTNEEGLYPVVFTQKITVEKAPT

T4: Boi1 SH3 (BOI1_YEAST), P38041
T4 chain: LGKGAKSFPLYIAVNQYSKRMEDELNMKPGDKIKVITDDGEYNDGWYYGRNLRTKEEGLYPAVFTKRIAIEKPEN

T5: Yfr024 SH3 (LSB3_YEAST), P43603
T5 chain: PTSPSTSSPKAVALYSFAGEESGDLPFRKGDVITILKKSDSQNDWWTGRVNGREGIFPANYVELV

B1: YEL050C 256-269 (peptide)
chain: GITPVGPGKFSRSA
B2: YNR031C 1516-1529 (peptide)
chain: GHTPQFPTKDEVSS
B3: YPL025C 36-49 (peptide)
chain: GIHPGFPIRMVQYA
B4: YPL105C 573-586 (peptide)
chain: GIKPQQPIKVDIKG
B5: YAL010C 476-489 (peptide)
chain: GNIPVFPAKFGIQF
B6: YPL085W 915-928 (peptide)
chain: GILPLAPLRPLDPL
B7: YGL009C 340-353 (peptide)
chain: GLEPNTPLKSIKVD
B8: YKL062W 547-560 (peptide)
chain: GKVPVQPRKRKSIT

For the first assay, the target named is T1, Rvs167 SH3 (RV167_YEAST), P39743. Put plainly: SPOT array.
Molecule B1 displayed a normalised SPOT signal, Boehringer light units (BLU); mean over the file's lines of this peptide of 32.3.
The same measure, in the same setting: then B2, with 22.1; and B3, with 24.6; and B4, with 38.7.
On the same count and under the same terms, then B5, with 50.1; and B6, with 57.3.
Turning to B7, the normalised SPOT signal, Boehringer light units (BLU); mean over the file's lines of this peptide came to 59.1.
On the same count and under the same terms, then B8, with 73.

Another assay concerns the target T2, Yhr016c SH3 (YSC84_YEAST), P32793. Description: SPOT array.
Molecule B1 registered a normalised SPOT signal, Boehringer light units (BLU); mean over the file's lines of this peptide of 81.1.
In turn, B2 displayed a normalised SPOT signal, Boehringer light units (BLU); mean over the file's lines of this peptide of 266.
Still for that read-out and setting: in the case of B3 it was 154; in that of B4, 153; in that of B5, 212.
Same read-out and setting: then B6, with 318; and B7, with 47.7.
The same measure, in the same setting: then B8, with 296.

Another assay deals with T3, Boi2 SH3 (BOI2_YEAST), P39969. Description: SPOT array.
On to B1, for which the normalised SPOT signal, Boehringer light units (BLU); mean over the file's lines of this peptide is 55.7.
Still for that read-out and setting: in the case of B2 it was 31.7; in that of B3, 114.
Still for that read-out and setting: then B4, with 41; and B5, with 59.2.
Still for that read-out and setting: in the case of B6 it was 30.8; in that of B7, 58.9.
Turning to B8, the normalised SPOT signal, Boehringer light units (BLU); mean over the file's lines of this peptide turned out to be 85.3.

For a further assay, the target named is T4, Boi1 SH3 (BOI1_YEAST), P38041. Description: SPOT array.
With B1, the normalised SPOT signal, Boehringer light units (BLU); mean over the file's lines of this peptide was 21.6.
Molecule B2 came in with a normalised SPOT signal, Boehringer light units (BLU); mean over the file's lines of this peptide of 25.2.
The same measure, in the same setting: then B3, with 69.6.
Molecule B4 showed a normalised SPOT signal, Boehringer light units (BLU); mean over the file's lines of this peptide of 115.
The same measure, in the same setting: then B5, with 46.1; and B6, with 115; and B7, with 55.1.
Still for that read-out and setting: in the case of B8 it was 242.

The next assay concerns the target T5, Yfr024 SH3 (LSB3_YEAST), P43603. Put plainly: SPOT array.
On to B1, for which the normalised SPOT signal, Boehringer light units (BLU); mean over the file's lines of this peptide came out at 21.5.
Still for that read-out and setting: then B2, with 19.8.
Still for that read-out and setting: in the case of B3 it was 331; in that of B4, 103; in that of B5, 1730.
In turn, B6 gave a normalised SPOT signal, Boehringer light units (BLU); mean over the file's lines of this peptide of 1660.
On the same count and under the same terms, in the case of B7 it was 68.2.
The same measure, in the same setting: in the case of B8 it was 1430.
